Target: β2AR-YFP (UniProt P07550 1-413)
Experiment: FRET or BRET

- BRET ratio (basal): 0.23
- BRET ratio (with ISO and SDF-1): 0.42
B1: CXCR4-RLuc (receptor, UniProt P61073 1-352, looked up)
chain: MEGISIYTSDNYTEEMGSGDYDSMKEPCFREENANFNKIFLPTIYSIIFLTGIVGNGLVILVMGYQKKLRSMTDKYRLHLSVADLLFVITLPFWAVDAVANWYFGNFLCKAVHVIYTVNLYSSVLILAFISLDRYLAIVHATNSQRPRKLLAEKVVYVGVWIPALLLTIPDFIFANVSEADDRYICDRFYPNDLWVVVFQFQHIMVGLILPGIVILSCYCIIISKLSHSKGHQKRKALKTTVILILAFFACWLPYYIGISIDSFILLEIIKQGCEFENTVHKWISITEALAFFHCCLNPILYAFLGAKFKTSAQHALTSVSRGSSLKILSKGKRGGHSSVSTESESSSFHSS

— publication PMC2978286 (Journal of cardiovascular pharmacology, 2010)
